From patent publication US20050118674A1, “Engineering of Controlled Deamidation Rates in Peptides, Proteins, and Similar Structures” (priority 2003, published 2005) come the findings set out here.

The data set in a line: First-order nonenzymatic deamidation of pentapeptides in Tris buffer. It counts as physicochemical. The settings on record: 0.15 M Tris HCl; for First-Order Deamidation Halftimes of GlyXxxAsnYyyGly: pH 7.4, 37.0° C., Asn pentapeptides; for First-Order Deamidation Halftimes of GlyXxxGlnYyyGly: pH 7.4, 37.0 ° C., Gln pentapeptides, 52 values measured, rest derived from surface fitting. The method in brief:
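Pentapeptides containing Asn or Gln in varied flanking sequences incubated at 37° C., pH 7.4, 0.15 M Tris buffer; first-order deamidation rates measured. Some Asn values estimated from remaining data; many Gln values derived from surface fitting rather than measured.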

Consider “GlyGluAsnAlaGly (GENAG; printed: GlyGluAsnAlaGly)”, for which the “First-Order Deamidation Halftimes of GlyXxxAsnYyyGly” value was 25.8 days. Still for that read-out and setting: in the case of GlyGluAsnAmCysGly it was 32.1 days; in that of “GlyGluAsnArgGly (GENRG; printed: GlyGluAsnArgGly)”, 80.9 days; in that of “GlyGluAsnAspGly (GENDG; printed: GlyGluAsnAspGly)”, 32.0 days. On to “GlyGluAsnCysGly (GENCG; printed: GlyGluAsnCysGly)”, for which the “First-Order Deamidation Halftimes of GlyXxxAsnYyyGly” value stood at 44.2 days.

As to “GlyGluAsnGluGly (GENEG; printed: GlyGluAsnGluGly)”, the “First-Order Deamidation Halftimes of GlyXxxAsnYyyGly” value was found to be 60.3 days.

Consider “GlyGluAsnGlyGly (GENGG; printed: GlyGluAsnGlyGly)”, for which the “First-Order Deamidation Halftimes of GlyXxxAsnYyyGly” value came to 1.45 days. Same read-out and setting: in the case of “GlyGluAsnHisGly (GENHG; printed: GlyGluAsnHisGly)” it was 9.0 days; in that of “GlyGluAsnIleGly (GENIG; printed: GlyGluAsnIleGly)”, 279 days. On the same count and under the same terms, in the case of “GlyGluAsnLeuGly (GENLG; printed: GlyGluAsnLeuGly)” it was 130 days. Same read-out and setting: in the case of “GlyGluAsnLysGly (GENKG; printed: GlyGluAsnLysGly)” it was 77.8 days; in that of “GlyGluAsnMetGly (GENMG; printed: GlyGluAsnMetGly)”, 59.6 days.

As to “GlyGluAsnPheGly (GENFG; printed: GlyGluAsnPheGly)”, the “First-Order Deamidation Halftimes of GlyXxxAsnYyyGly” value was found to be 70.2 days. The same measure, in the same setting: the same measure for “GlyGluAsnSerGly (GENSG; printed: GlyGluAsnSerGly)”: 16.4 days; for “GlyGluAsnThrGly (GENTG; printed: GlyGluAsnThrGly)”: 36.8 days. The same measure, in the same setting: in the case of “GlyGluAsnTrpGly (GENWG; printed: GlyGluAsnTrpGly)” it was 98.4 days. Turning to “GlyGluAsnTyrGly (GENYG; printed: GlyGluAsnTyrGly)”, the “First-Order Deamidation Halftimes of GlyXxxAsnYyyGly” value is 94.5 days. In the case of “GlyGluAsnValGly (GENVG; printed: GlyGluAsnValGly)”, the “First-Order Deamidation Halftimes of GlyXxxAsnYyyGly” value worked out at 268 days. For the substance “GlyGluGlnAlaGly (GEQAG; printed: GlyGluGlnAlaGly)”, the “First-Order Deamidation Halftimes of GlyXxxGlnYyyGly” value stood at 7100 days.

Consider “GlyGluGlnArgGly (GEQRG; printed: GlyGluGlnArgGly)”, for which the “First-Order Deamidation Halftimes of GlyXxxGlnYyyGly” value was 5200 days. As to “GlyGluGlnAspGly (GEQDG; printed: GlyGluGlnAspGly)”, the “First-Order Deamidation Halftimes of GlyXxxGlnYyyGly” value is listed as 8300 days. On the same count and under the same terms, in the case of “GlyGluGlnCysGly (GEQCG; printed: GlyGluGlnCysGly)” it was 2100 days; in that of “GlyGluGlnGluGly (GEQEG; printed: GlyGluGlnGluGly)”, 8200 days; in that of “GlyGluGlnGlyGly (GEQGG; printed: GlyGluGlnGlyGly)”, 750 days. Still for that read-out and setting: in the case of “GlyGluGlnHisGly (GEQHG; printed: GlyGluGlnHisGly)” it was 2500 days; in that of “GlyGluGlnIleGly (GEQIG; printed: GlyGluGlnIleGly)”, 4200 days. Turning to “GlyGluGlnLeuGly (GEQLG; printed: GlyGluGlnLeuGly)”, the “First-Order Deamidation Halftimes of GlyXxxGlnYyyGly” value stood at 4300 days. Same read-out and setting: the same measure for “GlyGluGlnLysGly (GEQKG; printed: GlyGluGlnLysGly)”: 4600 days; for “GlyGluGlnMetGly (GEQMG; printed: GlyGluGlnMetGly)”: 5200 days. The same measure, in the same setting: the same measure for “GlyGluGlnPheGly (GEQFG; printed: GlyGluGlnPheGly)”: 8400 days; for “GlyGluGlnProGly (GEQPG; printed: GlyGluGlnProGly)”: 10000 days; for “GlyGluGlnSerGly (GEQSG; printed: GlyGluGlnSerGly)”: 6100 days. Same read-out and setting: the same measure for “GlyGluGlnThrGly (GEQTG; printed: GlyGluGlnThrGly)”: 5400 days; for “GlyGluGlnTrpGly (GEQWG; printed: GlyGluGlnTrpGly)”: 17000 days. As to “GlyGluGlnTyrGly (GEQYG; printed: GlyGluGlnTyrGly)”, the “First-Order Deamidation Halftimes of GlyXxxGlnYyyGly” value was 13000 days. For “GlyGluGlnValGly (GEQVG; printed: GlyGluGlnValGly)”, the “First-Order Deamidation Halftimes of GlyXxxGlnYyyGly” value is reported as 6400 days. As for “GlyGlyAsnAlaGly (GGNAG; printed: GlyGlyAsnAlaGly)”, the “First-Order Deamidation Halftimes of GlyXxxAsnYyyGly” value is 21.1 days. Regarding GlyGlyAsnAmCysGly, the “First-Order Deamidation Halftimes of GlyXxxAsnYyyGly” value is on record as 27.6 days. Still for that read-out and setting: the same measure for “GlyGlyAsnArgGly (GGNRG; printed: GlyGlyAsnArgGly)”: 57.8 days. The same measure, in the same setting: in the case of “GlyGlyAsnAspGly (GGNDG; printed: GlyGlyAsnAspGly)” it was 28.0 days; in that of “GlyGlyAsnCysGly (GGNCG; printed: GlyGlyAsnCysGly)”, 40.6 days.

As to “GlyGlyAsnGluGly (GGNEG; printed: GlyGlyAsnGluGly)”, the “First-Order Deamidation Halftimes of GlyXxxAsnYyyGly” value is recorded as 73.9 days. Same read-out and setting: in the case of “GlyGlyAsnGlyGly (GGNGG; printed: GlyGlyAsnGlyGly)” it was 1.03 days; in that of “GlyGlyAsnHisGly (GGNHG; printed: GlyGlyAsnHisGly)”, 9.2 days. The same measure, in the same setting: in the case of “GlyGlyAsnIleGly (GGNIG; printed: GlyGlyAsnIleGly)” it was 287 days. The same measure, in the same setting: the same measure for “GlyGlyAsnLeuGly (GGNLG; printed: GlyGlyAsnLeuGly)”: 104 days; for “GlyGlyAsnLysGly (GGNKG; printed: GlyGlyAsnLysGly)”: 48.2 days; for “GlyGlyAsnMetGly (GGNMG; printed: GlyGlyAsnMetGly)”: 50.4 days. In the case of “GlyGlyAsnPheGly (GGNFG; printed: GlyGlyAsnPheGly)”, the “First-Order Deamidation Halftimes of GlyXxxAsnYyyGly” value was 64.0 days. Still for that read-out and setting: the same measure for “GlyGlyAsnProGly (GGNPG; printed: GlyGlyAsnProGly)”: 7170 days; for “GlyGlyAsnSerGly (GGNSG; printed: GlyGlyAsnSerGly)”: 11.8 days. Still for that read-out and setting: in the case of “GlyGlyAsnThrGly (GGNTG; printed: GlyGlyAsnThrGly)” it was 39.8 days; in that of “GlyGlyAsnTrpGly (GGNWG; printed: GlyGlyAsnTrpGly)”, 77.1 days; in that of “GlyGlyAsnTyrGly (GGNYG; printed: GlyGlyAsnTyrGly)”, 63.6 days. Take “GlyGlyAsnValGly (GGNVG; printed: GlyGlyAsnValGly)”: the “First-Order Deamidation Halftimes of GlyXxxAsnYyyGly” value is reported as 224 days. For “GlyGlyGlnAlaGly (GGQAG; printed: GlyGlyGlnAlaGly)”, the “First-Order Deamidation Halftimes of GlyXxxGlnYyyGly” value is on record as 5900 days. Same read-out and setting: the same measure for “GlyGlyGlnArgGly (GGQRG; printed: GlyGlyGlnArgGly)”: 7200 days; for “GlyGlyGlnAspGly (GGQDG; printed: GlyGlyGlnAspGly)”: 7600 days. On the same count and under the same terms, in the case of “GlyGlyGlnCysGly (GGQCG; printed: GlyGlyGlnCysGly)” it was 1900 days; in that of “GlyGlyGlnGluGly (GGQEG; printed: GlyGlyGlnGluGly)”, 7300 days; in that of “GlyGlyGlnGlyGly (GGQGG; printed: GlyGlyGlnGlyGly)”, 650 days. The same measure, in the same setting: in the case of “GlyGlyGlnHisGly (GGQHG; printed: GlyGlyGlnHisGly)” it was 5900 days. With “GlyGlyGlnIleGly (GGQIG; printed: GlyGlyGlnIleGly)”, the “First-Order Deamidation Halftimes of GlyXxxGlnYyyGly” value stood at 6300 days. For the substance “GlyGlyGlnLeuGly (GGQLG; printed: GlyGlyGlnLeuGly)”, the “First-Order Deamidation Halftimes of GlyXxxGlnYyyGly” value came out at 6200 days. Same read-out and setting: the same measure for “GlyGlyGlnLysGly (GGQKG; printed: GlyGlyGlnLysGly)”: 6000 days. The same measure, in the same setting: in the case of “GlyGlyGlnMetGly (GGQMG; printed: GlyGlyGlnMetGly)” it was 4500 days.

For the substance “GlyGlyGlnPheGly (GGQFG; printed: GlyGlyGlnPheGly)”, the “First-Order Deamidation Halftimes of GlyXxxGlnYyyGly” value came out at 7600 days. “GlyGlyGlnProGly (GGQPG; printed: GlyGlyGlnProGly)”: the “First-Order Deamidation Halftimes of GlyXxxGlnYyyGly” value is listed as 10000 days. Still for that read-out and setting: the same measure for “GlyGlyGlnSerGly (GGQSG; printed: GlyGlyGlnSerGly)”: 5700 days; for “GlyGlyGlnThrGly (GGQTG; printed: GlyGlyGlnThrGly)”: 5200 days.

As for “GlyGlyGlnTrpGly (GGQWG; printed: GlyGlyGlnTrpGly)”, the “First-Order Deamidation Halftimes of GlyXxxGlnYyyGly” value is 15000 days. On the same count and under the same terms, in the case of “GlyGlyGlnTyrGly (GGQYG; printed: GlyGlyGlnTyrGly)” it was 12000 days; in that of “GlyGlyGlnValGly (GGQVG; printed: GlyGlyGlnValGly)”, 6500 days.
